Measured values published in patent publication US10590193 (dated 2020).
Like-named read-outs stand apart in the source and are kept apart here.

T1: human VEGF165 (human, UniProt P15692)
T1 chain: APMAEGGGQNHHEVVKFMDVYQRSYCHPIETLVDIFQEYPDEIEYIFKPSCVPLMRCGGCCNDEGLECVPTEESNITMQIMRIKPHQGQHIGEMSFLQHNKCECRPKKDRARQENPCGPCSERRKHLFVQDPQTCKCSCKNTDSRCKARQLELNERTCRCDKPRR

T2: mouse VEGF164 (mouse, UniProt Q00731)
T2 chain: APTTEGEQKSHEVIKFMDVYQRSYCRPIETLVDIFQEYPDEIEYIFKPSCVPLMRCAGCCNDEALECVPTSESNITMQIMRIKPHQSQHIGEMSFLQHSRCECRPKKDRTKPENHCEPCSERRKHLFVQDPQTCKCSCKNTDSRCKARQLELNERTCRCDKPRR

T3: human VEGF121 (human, UniProt P15692)
T3 chain: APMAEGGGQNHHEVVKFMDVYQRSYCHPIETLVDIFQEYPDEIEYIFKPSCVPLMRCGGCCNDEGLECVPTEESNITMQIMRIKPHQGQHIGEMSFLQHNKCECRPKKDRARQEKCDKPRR

T4: rat VEGF164 (rat, UniProt P16612)
T4 chain: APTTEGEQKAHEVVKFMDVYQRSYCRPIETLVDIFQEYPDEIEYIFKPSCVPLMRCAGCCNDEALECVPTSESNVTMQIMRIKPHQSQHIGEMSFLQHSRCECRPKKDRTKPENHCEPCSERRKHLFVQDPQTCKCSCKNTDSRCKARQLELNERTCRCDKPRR

T5: human VEGF110 (human, UniProt P15692)
T5 chain: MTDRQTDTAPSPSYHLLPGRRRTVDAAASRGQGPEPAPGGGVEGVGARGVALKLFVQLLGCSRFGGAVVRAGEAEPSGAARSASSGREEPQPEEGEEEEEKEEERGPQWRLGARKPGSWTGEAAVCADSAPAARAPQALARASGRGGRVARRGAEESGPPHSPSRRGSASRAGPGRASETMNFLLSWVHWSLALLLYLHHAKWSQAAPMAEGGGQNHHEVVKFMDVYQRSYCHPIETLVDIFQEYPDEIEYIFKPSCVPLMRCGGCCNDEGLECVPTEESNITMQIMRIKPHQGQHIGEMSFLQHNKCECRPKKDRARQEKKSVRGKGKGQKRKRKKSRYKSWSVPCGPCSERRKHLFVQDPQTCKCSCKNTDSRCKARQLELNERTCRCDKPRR

T6: human PlGF (human, UniProt P49763)
T6 chain: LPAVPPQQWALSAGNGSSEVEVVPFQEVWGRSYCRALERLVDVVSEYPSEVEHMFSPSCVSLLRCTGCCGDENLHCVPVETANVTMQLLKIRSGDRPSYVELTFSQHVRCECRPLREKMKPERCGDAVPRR


Assays:
human VEGF165 [1] = target: T1, human VEGF165; assay: SPR, pH 5
human VEGF165 [2] = target: T1, human VEGF165; assay: SPR, pH 7.4
mouse VEGF164 [3] = target: T2, mouse VEGF164; assay: SPR, pH 5
human VEGF121 = target: T3, human VEGF121; assay: SPR, pH 5
rat VEGF164 [4] = target: T4, rat VEGF164; assay: SPR, pH 5
human VEGF110 = target: T5, human VEGF110; assay: SPR, pH 5
human PlGF = target: T6, human PlGF; assay: SPR, pH 5
human VEGF165 [5] = target: T1, human VEGF165; assay: SPR, pH 7.4
mouse VEGF164 [6] = target: T2, mouse VEGF164; assay: SPR, pH 5
rat VEGF164 [7] = target: T4, rat VEGF164; assay: SPR, pH 5
human VEGF165 [8] = target: T1, human VEGF165; assay: SPR, pH 5

Kd (human VEGF165 [1]) [nM]	koff (human VEGF165 [2]) [s⁻¹]	Kd (mouse VEGF164 [3]) [nM]	Kd (human VEGF121) [nM]	Kd (rat VEGF164 [4]) [nM]	Kd (human VEGF110) [nM]	binding result (human PlGF)	Kd (human VEGF165 [5]) [nM]	Kd (mouse VEGF164 [6]) [nM]	Kd (rat VEGF164 [7]) [nM]	Kd (human VEGF165 [8]) [nM]	Binder
1.18	35.7										610-max (antibody, V domains shown) VH: EVQLVESGGGLVQPGGSLRLSCTASGIDFSGAYYMGWVRQAPGKGLEWVGYIDYDGDRYYASWAKGRFTISKDTSKNTVYLQMNSLRAEDTAVYYCARSDYSSGWGTDIWGQGTLVTVSS VL: EIVMTQSPSTLSASVGDRVIITCQASQSISSWLSWYQQKPGKAPKLLIYQASTLASGVPSRFSGSGSGTEFTLTISSLQPDDFATYYCQNNYGFRSYGGAFGQGTKLTVLG
5.41	3.86										375-min (antibody, V domains shown) VH: EVQLVESGGGLVQPGGSLRLSCAASGFSFTTTDYMCWVRQAPGKGLEWVSCILAGDGSTYYANWAKGRFTISRDNSKNTLYLQMNSLRAEDTAVYYCAKSDPASSWSFALWGQGTLVTVSS VL: EIVMTQSPSTLSASVGDRVIITCQASENINIWLSWYQQKPGKAPKLLIYQASKLASGVPSRFSGSGSGAEFTLTISSLQPDDFATYYCQNNYSYNRYGAPFGQGTKLTVLG
1.82		1.63	1.28	2.41	1.65	no binding	3.06				509-min (antibody, V domains shown) VH: EVQLVESGGGLVQPGGSLRLSCAASGFSLSSYYMCWVRQAPGKGLEWVSCLDYVGDTDYASWAKGRFTISRDNSKNTLYLQMNSLRAEDTAVYYCAKTDDSRGWGLNIWGQGTLVTVSS VL: EIVMTQSPSTLSASVGDRVIITCQASQNIRIWLSWYQQKPGKAPKLLIYKASTLESGVPSRFSGSGSGAEFTLTISSLQPDDFATYYCQNNAHYSTNGGTFGQGTKLTVLG
3.37		1.73	1.37	1.81	1.48	no binding	2.61				509-maxII (antibody, V domains shown) VH: EVQLVESGGGLVQPGGSLRLSCTASGFSLSSYYMSWVRQAPGKGLEWVGILDYVGDTDYASWAKGRFTISKDASKNTVYLQMNSLRAEDTAVYYCARTDDSRGWGLNIWGQGTLVTVSS VL: EIVMTQSPSTLSASVGDRVIITCQASQNIRIWLSWYQQKPGKAPKLLIYKASTLESGVPSRFSGSGSGTEFTLTISSLQPDDFATYYCQNNAHYSTNGGTFGQGTKLTVLG
1.21		1.45	0.335	1.65	0.363	no binding	0.378				509-max (antibody, V domains shown) VH: EVQLVESGGGLVQPGGSLRLSCTASGFSLSSYYMCWVRQAPGKGLEWVGCLDYVGDTDYASWAKGRFTISKDASKNTVYLQMNSLRAEDTAVYYCARTDDSRGWGLNIWGQGTLVTVSS VL: EIVMTQSPSTLSASVGDRVIITCQASQNIRIWLSWYQQKPGKAPKLLIYKASTLESGVPSRFSGSGSGTEFTLTISSLQPDDFATYYCQNNAHYSTNGGTFGQGTKLTVLG
0.188		0.0929	0.0511	0.149	0.0327	no binding	0.143				567-max (antibody, V domains shown) VH: EVQLVESGGGLVQPGGSLRLSCSVSGFSLSDYYMCWVRQAPGKGLEWVGCLDYFGSTDDASWAKGRFTISKDTSKNTVYLQMNSLRAEDTAVYYCARTDDSRGWGLNIWGQGTLVTVSS VL: EIVMTQSPSTLSASVGDRVIITCQADQSIYIWLSWYQQKPGKAPKLLIYKASTLESGVPSRFSGSGSGTQFTLTISSLQPDDFATYYCQNNAHYSTNGGTFGQGTKLTVLG
0.23		0.17	0.0241	0.279	0.0251	no binding	0.631				567-min (antibody, V domains shown) VH: EVQLVESGGGLVQPGGSLRLSCAASGFSLSDYYMCWVRQAPGKGLEWVSCLDYFGSTDDASWAKGRFTISRDNSKNTLYLQMNSLRAEDTAVYYCAKTDDSRGWGLNIWGQGTLVTVSS VL: EIVMTQSPSTLSASVGDRVIITCQADQSIYIWLSWYQQKPGKAPKLLIYKASTLESGVPSRFSGSGSGAEFTLTISSLQPDDFATYYCQNNAHYSTNGGTFGQGTKLTVLG
2.53		1.64	1.24	2.04	1.45	no binding	1.31				511-min (antibody, V domains shown) VH: EVQLVESGGGLVQPGGSLRLSCAASGFSLNTYYMNWVRQAPGKGLEWVSIIAPDDTTYYASWAKSRFTISRDNSKNTLYLQMNSLRAEDTAVYYCAKSGDTTAWGADIWGQGTLVTVSS VL: EIVMTQSPSTLSASVGDRVIITCQASQSINIWCSWYQQKPGKAPKLLIYRASTLASGVPSRFSGSGSGAEFTLTISSLQPDDFATYYCQANYAYSAGYGAAFGQGTKLTVLG
								0.608	0.845	0.576	578minmax FW1.4_DHP (961) (antibody, V domains shown) VH: EVQLVESGGGSVQPGGSLRLSCTASGFSLTDYYYMTWVRQAPGKGLEWVGFIDPDDDPYYATWAKGRFTISRDTSKNTVYLQMNSLRAEDTATYYCAGGDHNSGWGLDIWGQGTTVTVSS VL: EIVMTQSPSTLSASVGDRVIITCQASEIIHSWLAWYQQKPGKAPKLLIYLASTLASGVPSRFSGSGSGAEFTLTISSLQPDDFATYYCQNVYLASTNGANFGQGTKLTVLG
9.01		10.7	9.16	10.7	11.4	no binding	0.181				578-min (antibody, V domains shown) VH: EVQLVESGGGLVQPGGSLRLSCAASGFSLTDYYYMTWVRQAPGKGLEWVSFIDPDDDPYYATWAKGRFTISRDNSKNTLYLQMNSLRAEDTAVYYCAKGDHNSGWGLDIWGQGTLVTVSS VL: EIVMTQSPSTLSASVGDRVIITCQASEIIHSWLAWYQQKPGKAPKLLIYLASTLASGVPSRFSGSGSGAEFTLTISSLQPDDFATYYCQNVYLASTNGANFGQGTKLTVLG
0.439		0.429	0.95	0.598	1.38	no binding	0.0237				578-max (antibody, V domains shown) VH: EVQLVESGGGLVQPGGSLRLSCTASGFSLTDYYYMTWVRQAPGKGLEWVGFIDPDDDPYYATWAKGRFTISRDTSKNTVYLQMNSLRAEDTAVYYCAGGDHNSGWGLDIWGQGTLVTVSS VL: EIVMTQSPSTLSASVGDRVIITCQASEIIHSWLAWYQQKPGKAPKLLIYLASTLASGVPSRFSGSGSGTQFTLTISSLQPDDFATYYCQNVYLASTNGANFGQGTKLTVLG
								1.46	1.82		578min_max T84N_V89L_DHP (1017) (antibody, V domains shown) VH: EVQLVESGGGSVQPGGSLRLSCTASGFSLTDYYYMTWVRQAPGKGLEWVGFIDPDDDPYYATWAKGRFTISRDNSKNTLYLQMNSLRAEDTATYYCAGGDHNSGWGLDIWGQGTTVTVSS VL: EIVMTQSPSTLSASVGDRVIITCQASEIIHSWLAWYQQKPGKAPKLLIYLASTLASGVPSRFSGSGSGAEFTLTISSLQPDDFATYYCQNVYLASTNGANFGQGTKLTVLG
								1.53	1.89	1.59	578min_max T84N_V89L (1008) (antibody, V domains shown) VH: EVQLVESGGGLVQPGGSLRLSCTASGFSLTDYYYMTWVRQAPGKGLEWVGFIDPDDDPYYATWAKGRFTISRDNSKNTLYLQMNSLRAEDTAVYYCAGGDHNSGWGLDIWGQGTLVTVSS VL: EIVMTQSPSTLSASVGDRVIITCQASEIIHSWLAWYQQKPGKAPKLLIYLASTLASGVPSRFSGSGSGAEFTLTISSLQPDDFATYYCQNVYLASTNGANFGQGTKLTVLG
